The values below are quoted from earlier work in patent US7435406B2, “Methods for conducting metabolic analyses” (Target Discovery, Inc., priority 1999, dated 2008).

For this data set the following is noted: protein standards obtained from Sigma-Aldrich.

“Carbonic anhydrase II: protein standard from Sigma-Aldrich, Cat # T 6522”: the pl is 4.5.

B1: Bovine ribonuclease A: protein standard from Sigma-Aldrich, Cat # R 5503 (protein, UniProt P61823 27-150, looked up)
Ribonuclease pancreatic: KETAAAKFERQHMDSSTSAASSSNYCNQMMKSRNLTKDRCKPVNTFVHESLADVQAVCSQKNVACKNGQTNCYQSYSTMSITDCRETGSSKYPNCAYKTTQANKHIIVACEGNPYVPVHFDASV
Take B1: the pl is 9.6.
